Data: the DeepSol protein solubility set

Experiment: soluble on expression in E. coli; label from the status in PepcDB or PDB records

Soluble on expression in E. coli, not soluble:
MGSDKIHHHHHHMSMSVQQIDWDLALIQKYNYSGPRYTSYPTALEFSEDFGEQAFLQAVARYPERPLSLYVHIPFCHKLCYFCGCNKIVTRQQHKADQYLDALEQEIVHRAPLFAGRHVSQLHWGGGTPTYLNKAQISRLMKLLRENFQFNADAEISIEVDPREIELDVLDHLRAEGFNRLSMGVQDFNKEVQRLVNREQDEEFIFALLNHAREIGFTSTNIDLIYGLPKQTPESFAFTLKRVAELNPDRLSVFNYAHLPTIFAAQRKIKDADLPSPQQKLDILQETIAFLTQSGYQFIGMDHFARPDDELAVAQREGVLHRNFQGYTTQGDTDLLGMGVSAISMIGDCYAQNQKELKQYYQQVDEQGNALWRGIALTRDDCIRRDVIKSLICNFRLDYAPIEKQWDLHFADYFAEDLKLLAPLAKDGLVDVDEKGIQVTAKGRLLIRNICMCFDTYLRQKARMQQFSRVI, MGSDKIHHHHHHMSNCFNPANILLPKDGIDMEKWSVIACDQYTSQADYWKTVEEFVGDAPSTLNVVFPEIYLGNKKNDKNCACENGSCADDHTTMYASMSDSERIACINSTMEKYLSDGIIQQVVTDGYVLVERTTESGVRLGIVGLVDLDDYDFDPKNPTLIRATEGTVISRIPPRVKIREHAAIELPHVMLLVDDPVDKADDASDEGKLTDIYNIGNIEHGIIEYVYSLKDSFRKLYDTDLMQGGGHIRGYAIEGEAAKQVTAAFAKKQEQSGGFLFAVGDGNHSLATAKTCWENIRKSQKFTDEQLKTHPARYALVEICNLHSKALEFKPIHRLLTKVNVEDMLAFFNEQLKEQGLECAEGNEIIFEYVESSDSIDENASGYEARVCTYAINIINRGDRLPVEILQGILDKYIKSHEDTEIDYIHGDDALHRLVKETNGCGIFLQSIDKSTLFPAINAGGVLPRKTFSIGEANEKRYYMECHNIQVK, MGSDKIHHHHHHMSNELESNDVIKISVSHLALGMFVTAIDNAKGALSITNPGQIKTQDAINKLLKSGIKSVWVDVERSADNCGLKKTSAESFEPTKGNPLARKAKPSRDSKQAQVKVILNEAKNLVRKVLSETYEGKAVEVAPFEEIADRMIESVMDDADAMKCISALRTKDAYLLEHSVNVAFLLVTFGKHLGLDKTMLKEMAVGGILHDIGKIKVDNEVLHKPGKLTPEEFAHIKLHQVYAVEIMEQTQGLAQVSKDVCLMHHEKLDGRGYPKGLKGDEIPLHGRMSCIVDIFDALTATRCYKEAMSPAAAFKILISLTPFHLDQALVYEFIRCVGIYPVGSLVQLSDERIGIVWEAKDRDALHPVVKCFYSLKHKRYTEVTMVDLRKAEVNIERGVSPGTLDVDPTPFY, MGSDKIHHHHHHMSNQPHKPYGTPEPTYSGNKRSLILAGGGMRVAYQAGAIRALIESGLCFNHADGTSGGTMNLAMLLSGLSPIEMCDRWQTLNVKDFVSFIPLEKYLKAWDLLSMGDADGIIDRVFPHLGIDISKINASEGMQGTFNVCNFTHKTNEVIPHDRLDLDLLVAGISLPIFMPPVQKGDYLYMDSVWIKDVNLMEAVRRGADELWVLWCIGNSSEYQTGIFNQYVHMMELSANGAFFEECDRINEINQRILQGETVYGHTQPIKLHLIKPAYPLPLDPDYYLGNIDGATLVDMGYADAKQYLQTMSPAGLPFQPDVTRMHNNLPGMTFRESMAGAFVLNETDPIQGAAKGKAHNSSLSLQLTINICDLKRFLGDTTFTASIAGNISFANFGEHIPFKRGVFNLFAHDHNPGYKYITYELAFEHGNQDYYLVGKKELHNDPGFDLWQDMTTIYTYLHQGTDNNSPIIGSGILTLDVGDVAKCVSGWRITNAKSLTEKTTLLAEFGSFFWGNIWETYQP, MGSDKIHHHHHHMSNTQKVPVTILTGFLGSGKTTLLNRILSEEHGKKIAVIENEYGEVGIDQGLVINADEEVFEMSNGCICCTVRGDLIRVLGNLMKRRDKFDYVLVETTGLADPGPVAQTFFMDDEIREEFSLDGIVTLVDAAHIEQQLGRSDESSEQVAFADVLVLNKTDLVSDESLDNLESRLRDMNRMARVIRSKQADVSIDTVLNLSAFDLDQVLQRRPTFLEPEYPFEWTGVFSLEKGRYELTLEEGPDPTMSLVQLLDQGKDETALNTGAESCVRLYAEQEQLMNPGDLVPVGKHVNLQLQSEGTKSFFIDVDKARDIGLFTQHTAEEFNMKLTKVNTPSTDEIDNDQNISTISPIAERVWVAEHEHDDEVGSFAIEREGDVDPEKLNRWLSRLLSEKGVDIFRTKGFISYAGESKRIVFQGVHMLFTAQPDKEWGNEPRRNQLVFIGRNLDEAEMIKEFDKCLV, MGSDKIHHHHHHMSNTVRAISPDITLFNKTLTFQEISQNTREAVIYIHGGAWNDPENTPNDFNQLANTIKSMDTESTVCQYSIEYRLSPEITNPRNLYDAVSNITRLVKEKGLTNINMVGHSVGATFIWQILAALKDPQEKMSEAQLQMLGLLQIVKRVFLLDGIYSLKELLVEYPEYDCFTRLAFPDGIQMYEEEPSRVMPYVKKALSRFSIDMHLVHSYSDELLTLRQTNCLISCLQDYQLSFKLYLDDLGLHNDVYKNGKVAKYIFDNIC, MGSDKIHHHHHHMSQAFLASENEQIKDYYEENGYVVVKNAVSLEKITDFINKYENFKISKNYYFRSQDTNRAEKLAINEKGFIERSILNPLELVYQKDFCRSSSNIICADSVSQILRTLTGKQKHTIWQTMFFDKSTGTVAHQDHYYLDSDPPGNLIACWYALEDIQEDAGAFFVVPKSHKGSVIPRKTDVPLFSDHEEYAKNIQKLINEQSYPIQPMLLEKGSVLFWHPYLIHGAFQNTNPKYSRKSFTAHFLPEGYSRLGISRVKPTVISTNPNILSWKKNLLHHAEASIRHWRYWLQVNLRPKSQRPYLEMRSSEYLDIK, MGSDKIHHHHHHMSQATAKVNREVQAFLQDLKGKTIDHVFFVACGGSSAIMYPSKYVFDRESKSINSDLYSANEFIQRNPVQLGEKSLVILCSHSGNTPETVKAAAFARGKGALTIAMTFKPESPLAQEAQYVAQYDWGDEALAINTNYGVLYQIVFGTLQVLENNTKFEQAIEGLDQLQAVYEKALKQEADNAKQFAKAHEKESIIYTMASGANYGVAYSYSICILMEMQWIHSHAIHAGEYFHGPFEIIDESVPFIILLGLDETRPLEERALTFSKKYGKKLTVLDAASYDFTAIDDSVKGYLAPLVLNRVLRSYADELAEERNHPLSHRRYMWKVEY, MGSDKIHHHHHHMSQKIAYQRLEDILKKGSRIALYARYSTGKQDENAQIHSVRNFLSDYGCELLDDNIYIDPKTSAVKVPMDQRKDLQRLIKDSKENKFDCIVSYKNDRIARNTQEHNELRTEMQRLGMPVVLSSTREIYTVGEIVPLTIKDALTQIEPLLIAERTRDTFSSKIENGEWTGGQAPYGYIYDKETELFEITDKKVEVVQEIFRLFKLGYGLQQIANKLIADRRDIGQKWYKDKIKYIITNPFYAGHMTMNRYVKGKLQLKMETWTWSKKQESIPAIMSRDEWEYCFYLYVERRKSQTVRKSSTPFWLRDILHCNECQLPFKTKNQKTKSKRKNGEKVEYGKILYECRNCGLKLETEKIHDKFKEDVGRVLKKLLEKHRENLIQQTQLQIEKEHEEITNVQKELANKRIKLIENIDVLDKKISQLYKDITTGKGLKANHTEDVLGKEDEQDDWNSKLVEILLTGRSQKHNDLEEIKQQQQLLEDKQESLNIVMNALKNQYQDELLNFSFDPENEKSMRNFLLQFVKAVYVSRDMRLDYKIYENLISE, MGSDKIHHHHHHMSQPLFPVVEVPDFISEDSQYDTQYKRSMKWNTELGDFVRDGAHRIKECDGKEAFAIWCFKIAQTERYRCLAYPDSIGTEMERAMDNDDEKTVESMVERTITDAIMVNPRAENVRDFQFTWEGDQMHVTFKVKGSNWDEEIEISL, MGSDKIHHHHHHMSQSAITVDQVTVTYRNGHTALRDATFQVPGGSIAALVGVNGSGKSTLFKALMGFVHLAQGDITILQQSVNKALKKNLIAYVPQSEEVDWSFPVLVEDVVMMGRYGHMGWLRRPTAHDHACVDAALARVDMQEYRHRQIGELSGGQKKRVFLARAIAQDGQVILLDEPFTGVDVKTEARIIDLLRELRDEGRTMLVSTHNLGSVTEFCDYTVMIKGTVLASGPTETTFTAANLEQAFSGVLRHIALSGGEEHIITDDERPFISRRVASGGKSS, MGSDKIHHHHHHMSRFVGTETEYGIATPSNTMLSPIVTSTHAVVAFSLGERCASQARWDFSEESPLRDLRGFDLRRYRTVPVVDPHALGVANSVLINGGRFYVDHAHPEYSSPETSSAFQAMLYDAAGDVVMNRAVELVAENSQRKHSVLEHHDPCPPLKIYKNNVDGKGASYGSHENYLYNRETPFEEISSGLTPFFITRQVIIGAGRVGIGQYGEKSGFQISQRADYIEQEISLETTLNRGIINTRDEPHADSEHFGRLHVIIGDANMSQTSNFLKIGMTTLVLDAIEAGVDFSDLAVANPVAEVSAISHDLTLTHKIVLRDGRTLTALELLDEYRKRVSPQSDDDLDVLKEWSEILVLLQKGPFYAADRLDWCAKWQLISSFIKRGVSIDDPKIQLIDLQYADIDPAKSLYHALVRKGRMRTLVSTEQINNAAWSPPKGSRAYLRGSLISRFPDSVVQASWDSITLQTSRDQATKIKMPVVQSLSAEAIATIDTASSVKEVATILSQWLPVTTISLT, MGSDKIHHHHHHMSRFVVITAAQDFQRKVQSAVRGALHGTVQILPPSVMLGGPQELFGRLSGEPPEVLVLGPGLPGDEALKLATVFDLQYPEISLVLVEDMASEQVINAMRAGIRDIVSPSAEVSELRILLERACLASAGRRRGLVAAAGPERPAGRVIAVMSPKGGVGKTTVATNLAIGLGKIAPMGVVIVDLDVQFGDVATGLQLEPEHTLRDAVGGAAFQDSMVLKAFLTVHPSGIYALCAPNTPGEADHISGEAVSHLLNQMAAEFQYVVVDTTPGLGEHVLATLEQATDAVWVCGMDIPSIRGLHTSFEVLRELQLLPQGRHVVLNFADRRSGLTVQDVEATIGVPVDTVVPRSRAVPFSTNKGVPLLQDSSHDGAARAFAKLVERFDPKRATQPQKKVHRRMVIS, MGSDKIHHHHHHMSRLERLVTIDSLIRSRTYPSVADFCARFELSERAIFADLAYLRERIGAPLAYSRRNGGYYYRDPTWVMPMLQVTEGELLAFLISTELSRRYLGTPFAAPLRRLLQRMEAYITEQIVVHPDALLAHLTFQPGALAAVDPELVQVLHECIRECYPVEITYFTASRQELTHRLIEPYHLFLARGDLHVIAFDHLRGELRQFALYRIRQWQVRRHERFVRNPQIDIAAYLRNGFVVEGGTQPLLIEIAFDREQAPYIRERQWHATQQLEDQPDGGVILRFQSGALGEIKRWVLGYGSHARVLSPPELVQMVADELRKAAALYT, MGSDKIHHHHHHMSSKVKVIAFYLPQFHPIPENDEWWGKGFTEWTSVGRAKKYYRGHYQPRVPADLGYYDLRLPQVRQQQADLAKEAGISAFCYWHYWFGNGKQLLENPLQEVVKLGEPDFPFCLGWANHTWLNKSWNREKQTVIPKPLILQEYPGKKDVDCHFYTMLPMFRDQRYFRIHGKLLFLIYAPLDIPNFKYFKMRWNELASQNDLPGFYFIANSEDISNIKNPIIREFEAVSLCRLYSAWNIEGKKVNNIVIRITRNISRILGYSLNKISYKKAIEKIDTPYYEEDRVYPNIIPGWDNSPRRGPGAFIFHKATPALFKKHVKMILNRIKDKPDEDKVIFLKSWNEWAEGNYMEPDLKWGKGYIRALREALEEDAK, MGSDKIHHHHHHMSTKSLPMDQILNELRSYDRSEHILNHGFDLGTAWWKIELRKAAWTPSGPLAEPTESVRIDRRRLFGMASEIHTGDIDPVDFTLSVVLWGSGSSRRNNRARIQSIVDVEGRVALRQALELASTDAEASFAAFRTNGRNAFAYLGPAFFTKLMYFAGAGSKSHDAYIVDHRVLQTLSRTPAGAGLRAIHNYGPNTYRRACSALEVIASAARVSGCPELADCTGDLVERWAFDVAGAS
